The text below walks through data of the RNAGym collection of RNA variant scans (doi:10.1093/molbev/msab373).

B1: Azoarcus group I ribozyme (parent)
chain: GUGCCUUGCGCCGGGAAACCACGCAAGGGAUGGUGUCAAAUUCGGCGAAACCUAAGCGCCCGCCCGGGCGUAUGGCAACGCCGAGCCAAGCUUCGGCGCCUGCGCCGAUGAAGGUGUAGAGACUAGACGGCACCCACCUAAGGCAAACGCUAUGGUGAAGGCAUAGUCCAGGGAGUGGCGAAAGUCACACAAACCGG

This data set covers variants of B1. Nature of the data set: reverse-splicing fitness (ratio to wild type); higher = more active; in vitro selection; Mg2+ level not given. In short, it runs like this:
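An in vitro group I ribozyme library with randomized positions was T7-transcribed and gel-purified. In triplicate, 10 pmol RNA in EPPS pH 7.5 was reacted with 50 pmoles of a 30-nt RNA substrate for 1 h at 37 °C across several added MgCl2 levels (1–48 mM), then stopped with EDTA. Products were reverse transcribed from a substrate-complementary primer, PCR-amplified and sequenced (HiSeq 4000). Fitness is a variant's read proportion after selection over that before, normalised to wild type.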
As to GUGCCUUGCGCCGGGAAACCACGCAAGGGAUGGUGUCAAAUUCGGCGAAACCUAAGCGCCCGCCCGGGCGUAUGGCAACGCAGAGCCAAGCUUCGGCGCCUGCGCCGAUGGAGGUGUAGGGACUAGACGGCACCCACCUAAGGCAAACGAUAUGGUGAAGGCAUAGUCAAGGGAGGGGCGAAAGUCACACAAACCGG, the reverse-splicing fitness was determined as 0.00588.

For GUGCCUUGCGCCGGGAAACCACGCAAGGGAUGGUGUCAAAUUCGGCGAAACCUAAGCGCCCGCCCGGGCGUAUGGCAACGCCGAGCCAAGCUUCGGCGCCUGCGCCGAUGAAGGUGUAGGGACUAGACGGCACCCACCUAAGGCUAACGAUAUGGUGAAGGCAUAGUCAAGGGAGCGGCGAAAGUCACACAAACCGG, the reverse-splicing fitness was determined as 0.035.

In the case of GUGCCUUGCGCCGGGAAACCACGCAAGGGAUGGUGUCAAAUUCGGCGAAACCUAAGCGCCCGCCCGGGCGUAUGGCAACGCAGAGCCAAGCUUCGGCGCCUGCGCCGAUGAAGGUGUAGAGACUAGACGGCACCCACCUAAGGCAAACGAUAUGGUGAAGGCAUAGUCGAGGGAGUGGCGAAAGUCACACAAACCGG, the reverse-splicing fitness came to 0.00927.

GUGCCUUGCGCCGGGAAACCACGCAAGGGAUGGUGUCAAAUUCGGCGAAACCUAAGCGCCCGCCCGGGCGUAUGGCAACGCCGAGCCAAGCUUCGGCGCCUGCGCCGAUGCAGGUGUAGAGACUAGACGGCACCCACCUAAGGCAAACGGUAUGGUGAAGGCAUAGUCCAGGGAGAGGCGAAAGUCACACAAACCGG: the reverse-splicing fitness came to 0.0504.

For the variant GUGCCUUGCGCCGGGAAACCACGCAAGGGAUGGUGUCAAAUUCGGCGAAACCUAAGCGCCCGCCCGGGCGUAUGGCAACGCAGAGCCAAGCUUCGGCGCCUGCGCCGAUGGAGGUGUAGUGACUAGACGGCACCCACCUAAGGCGAACGUUAUGGUGAAGGCAUAGUCUAGGGAGUGGCGAAAGUCACACAAACCGG, the reverse-splicing fitness came to 0.00572.

As for GUGCCUUGCGCCGGGAAACCACGCAAGGGAUGGUGUCAAAUUCGGCGAAACCUAAGCGCCCGCCCGGGCGUAUGGCAACGCAGAGCCAAGCUUCGGCGCCUGCGCCGAUGUAGGUGUAGAGACUAGACGGCACCCACCUAAGGCCAACGGUAUGGUGAAGGCAUAGUCGAGGGAGCGGCGAAAGUCACACAAACCGG, the reverse-splicing fitness was determined as 0.00829.

For the variant GUGCCUUGCGCCGGGAAACCACGCAAGGGAUGGUGUCAAAUUCGGCGAAACCUAAGCGCCCGCCCGGGCGUAUGGCAACGCCGAGCCAAGCUUCGGCGCCUGCGCCGAUGAAGGUGUAGCGACUAGACGGCACCCACCUAAGGCAAACGUUAUGGUGAAGGCAUAGUCCAGGGAGUGGCGAAAGUCACACAAACCGG, the reverse-splicing fitness turned out to be 0.723.

As to GUGCCUUGCGCCGGGAAACCACGCAAGGGAUGGUGUCAAAUUCGGCGAAACCUAAGCGCCCGCCCGGGCGUAUGGCAACGCAGAGCCAAGCUUCGGCGCCUGCGCCGAUGCAGGUGUAGGGACUAGACGGCACCCACCUAAGGCAAACGGUAUGGUGAAGGCAUAGUCGAGGGAGGGGCGAAAGUCACACAAACCGG, the reverse-splicing fitness is 0.00538.

Regarding GUGCCUUGCGCCGGGAAACCACGCAAGGGAUGGUGUCAAAUUCGGCGAAACCUAAGCGCCCGCCCGGGCGUAUGGCAACGCGGAGCCAAGCUUCGGCGCCUGCGCCGAUGGAGGUGUAGUGACUAGACGGCACCCACCUAAGGCGAACGUUAUGGUGAAGGCAUAGUCUAGGGAGAGGCGAAAGUCACACAAACCGG, the reverse-splicing fitness was determined as 0.00467.

Turning to GUGCCUUGCGCCGGGAAACCACGCAAGGGAUGGUGUCAAAUUCGGCGAAACCUAAGCGCCCGCCCGGGCGUAUGGCAACGCCGAGCCAAGCUUCGGCGCCUGCGCCGAUGGAGGUGUAGAGACUAGACGGCACCCACCUAAGGCCAACGUUAUGGUGAAGGCAUAGUCGAGGGAGAGGCGAAAGUCACACAAACCGG, the reverse-splicing fitness came out at 0.0242.

For the variant GUGCCUUGCGCCGGGAAACCACGCAAGGGAUGGUGUCAAAUUCGGCGAAACCUAAGCGCCCGCCCGGGCGUAUGGCAACGCAGAGCCAAGCUUCGGCGCCUGCGCCGAUGGAGGUGUAGCGACUAGACGGCACCCACCUAAGGCUAACGAUAUGGUGAAGGCAUAGUCAAGGGAGUGGCGAAAGUCACACAAACCGG, the reverse-splicing fitness is 0.0111.

As to GUGCCUUGCGCCGGGAAACCACGCAAGGGAUGGUGUCAAAUUCGGCGAAACCUAAGCGCCCGCCCGGGCGUAUGGCAACGCGGAGCCAAGCUUCGGCGCCUGCGCCGAUGGAGGUGUAGCGACUAGACGGCACCCACCUAAGGCGAACGUUAUGGUGAAGGCAUAGUCAAGGGAGUGGCGAAAGUCACACAAACCGG, the reverse-splicing fitness was 0.0104.

As for GUGCCUUGCGCCGGGAAACCACGCAAGGGAUGGUGUCAAAUUCGGCGAAACCUAAGCGCCCGCCCGGGCGUAUGGCAACGCCGAGCCAAGCUUCGGCGCCUGCGCCGAUGAAGGUGUAGGGACUAGACGGCACCCACCUAAGGCAAACGCUAUGGUGAAGGCAUAGUCCAGGGAGGGGCGAAAGUCACACAAACCGG, the reverse-splicing fitness amounted to 0.0139.

For GUGCCUUGCGCCGGGAAACCACGCAAGGGAUGGUGUCAAAUUCGGCGAAACCUAAGCGCCCGCCCGGGCGUAUGGCAACGCAGAGCCAAGCUUCGGCGCCUGCGCCGAUGUAGGUGUAGCGACUAGACGGCACCCACCUAAGGCGAACGAUAUGGUGAAGGCAUAGUCAAGGGAGAGGCGAAAGUCACACAAACCGG, the reverse-splicing fitness came out at 0.0221.

On to GUGCCUUGCGCCGGGAAACCACGCAAGGGAUGGUGUCAAAUUCGGCGAAACCUAAGCGCCCGCCCGGGCGUAUGGCAACGCGGAGCCAAGCUUCGGCGCCUGCGCCGAUGGAGGUGUAGCGACUAGACGGCACCCACCUAAGGCGAACGGUAUGGUGAAGGCAUAGUCGAGGGAGUGGCGAAAGUCACACAAACCGG, for which the reverse-splicing fitness was found to be 0.00764.
